Values of other authors, collected in paper PMC6225487.

Biological target: TfR (Homo sapiens) (UniProt P02786)
Sequence (P02786 89-760): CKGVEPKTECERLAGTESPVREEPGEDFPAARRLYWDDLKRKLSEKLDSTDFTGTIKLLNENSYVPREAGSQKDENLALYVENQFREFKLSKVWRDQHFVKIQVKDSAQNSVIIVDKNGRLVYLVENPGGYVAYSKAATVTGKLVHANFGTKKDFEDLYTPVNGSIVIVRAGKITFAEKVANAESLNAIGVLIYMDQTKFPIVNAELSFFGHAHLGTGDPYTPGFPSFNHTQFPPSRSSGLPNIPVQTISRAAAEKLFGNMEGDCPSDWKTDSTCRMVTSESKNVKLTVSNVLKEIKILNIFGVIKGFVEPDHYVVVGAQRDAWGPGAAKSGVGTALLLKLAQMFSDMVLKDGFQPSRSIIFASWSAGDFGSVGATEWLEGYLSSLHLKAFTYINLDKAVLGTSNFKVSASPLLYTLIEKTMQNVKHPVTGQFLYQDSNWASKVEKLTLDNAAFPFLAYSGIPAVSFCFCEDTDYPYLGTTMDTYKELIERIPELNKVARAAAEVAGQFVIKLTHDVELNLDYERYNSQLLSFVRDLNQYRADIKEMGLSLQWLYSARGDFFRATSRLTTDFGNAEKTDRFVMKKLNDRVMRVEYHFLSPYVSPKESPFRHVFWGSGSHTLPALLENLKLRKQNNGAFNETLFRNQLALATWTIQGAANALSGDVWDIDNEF

For T7 peptide, the Kd is given as 10 nM.
